Reference: publication PMC6598686 (Molecular cell, 2019)

Biological target: human linker histone H1.4 (human, UniProt P10412 1-219)
Test: pull-down

Chain of human linker histone H1.4 (P10412 whole entry): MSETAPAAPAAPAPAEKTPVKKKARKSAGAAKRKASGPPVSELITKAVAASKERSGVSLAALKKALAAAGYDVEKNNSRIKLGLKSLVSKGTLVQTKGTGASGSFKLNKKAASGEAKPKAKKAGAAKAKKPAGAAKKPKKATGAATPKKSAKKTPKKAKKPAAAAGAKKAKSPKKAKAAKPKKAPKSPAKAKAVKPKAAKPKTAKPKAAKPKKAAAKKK

B1: His-tagged NAP1(160-312) (domain or fragment, human, UniProt P55209 160-312, looked up)
chain: EKEDPKGIPEFWLTVFKNVDLLSDMVQEHDEPILKHLKDIKVKFSDAGQPMSFVLEFHFEPNEYFTNEVLTKTYRMRSEPDDSDPFSFDGPEIMGCTGCQIDWKKGKNVTLKTIKKKQKHKGRGTVRTVTKTVSNDSFFNFFAPPEVPESGDL
  binding result: binds
